From patent publication US20030120051A1 (SUGEN, published 2003)
One block for each binder: values may come before it.

What was measured:
human c-Src = human c-Src (human, UniProt P12931 2-536); experiment: immunoprecipitation and immunoblotting of endogenous proteins in IMR-32 cells
[1] = target: endogenous c-Src of rat GH3 cells (rat, UniProt Q9WUD9 2-536, limits assumed); experiment: immunoprecipitation and immunoblotting of endogenous proteins in GH3 cells

binding result (human c-Src): no binding
B1: human CASPR/p190 (receptor)
chain: WGYYGCDEELVGPLYARSLGASSYYSLLTAPRFARLHGISGWSPRIGDPNPWLQIDLMKKHRIRAVATQGSFNSWDWVTRYMLLYGDRVDSWTPFYQRGHNSTFFGNVNESAVVRHDLHFHFTARYIRIVPLAWNPRGKIGLRLGLYGCPYKADILYFDGDDAISYRFPRGVSRSLWDVFAFSFKTEEKDGLLLHAEGAQGDYVTLELEGAHLLLHMSLGSSPIQPRPGHTTVSAGGVLNDQHWHYVRVDRFGRDVNFTLDGYVQRFILNGDFERLNLDTEMFIGGLVGAARKNLAYRHNFRGCIENVIFNRVNIADLAVRRHSRITFEGKVAFRCLDPVPHPINFGGPHNFVQVPGFPRRGRLAVSFRFRTWDLTGLLLFSRLGDGLGHVELTLSEGQVNVSIAQSGRKKLQFAAGYRLNDGFWHEVNFVAQENHAVISIDDVEGAEVRVSYPLLIRTGTSYFFGGCPKPASRWDCHSNQTAFHGCMELLKVDGQLVNLTLVEGRRLGFYAEVLFDTCGITDRCSPNMCEHDGRCYQSWDDFICYCELTGYKGETCHTPLYKESCEAYRLSGKTSGNFTIDPDGSGPLKPFVVYCDIRENRAWTVVRHDRLWTTRVTGSSMERPFLGAIQYWNASWEEVSALANASQHCEQWIEFSCYNSRLLNTAGGYPYSFWIGRNEEQHFYWGGSQPGIQRCACGLDRSCVDPALYCNCDADQPQWRTDKGLLTFVDHLPVTQVVIGDTNRSTSEAQFFLRPLRCYGDRNSWNTISFHTGAALRFPPIRANHSLDVSFYFRTSAPSGVFLENMGGPYCQWRRPYVRVELNTSRDVVFAFDVGNGDENLTVHSDDFEFNDDEWHLVRAEINVKQARLRVDHRPWVLRPMPLQTYIWMEYDQPLYVGSAELKRRPFVGCLRAMRLNGVTLNLEGRANASEGTSPNCTGHCAHPRLPCFHGGRCVERYSYYTCDCDLTAFDGPYCNHDIGGFFEPGTWMRYNLQSALRSAAREFSHMLSRPVPGYEPGYIPGYDTPGYVPGYHGPGYRLPDYPRPGRPVPGYRGPVYNVTGEEVSFSFSTSSAPAVLLYVSSFVRDYMAVLIKDDGTLQLRYQLGTSPYVYQLTTRPVTDGQPHSINITRVYRNLFIQVDYFPLTEQKFSLLVDSQLDSPKALYLGRVMETGVIDPEIQRYNTPGFSGCLSGVRFNNVAPLKTHFRTPRPMTAELAEALRVQGELSESNCGAMPRLVSEVPPELDPWYLPPDFPYYHDEGWVAILLGFLVAFLLLGLVGMLVLFYLQNHRYKGSYHTNEPKAAHEYHPGSKPPLPTSGPAQVPTPTAAPNQAPASAPAPAPTPAPAPGPRDQNLPQILEESRSE
notes: Endogenous in IMR-32 neuroblastoma cells

binding result [1]: no binding
B2: rat CASPR/p190 (receptor)
chain: WGYYGCNEELVGPLYARSLGASSYYGLFTTARFARLHGISGWSPRIGDPNPWLQIDLMKKHRIRAVATQGAFNSWDWVTRYMLLYGDRVDSWTPFYQQGHNATFFGNVNDSAVVRHDLHYHFTARYIRIVPLAWNPRGKIGLRLGIYGCPYTSNILYFDGDDAISYRFQRGASQSLWDVFAFSFKTEEKDGLLLHTEGSQGDYVTLELQGAHLLLHMSLGSSPIQPRPGHTTVSAGGVLNDLSWHYVRVDRYGREANLTLDGYVHRFVLNGDFERLNLENEIFIGGLVGAARKNLAYRHNFRGCIENVIYNRINIAEMAVQRHSRITFEGNVAFRCLDPVPHPINFGGPHNFVQVPGFPRRGRLAVSFRFRTWDLTGLLLFSRLGDGLGHVELMLSEGQVNVSIAQTGRKKLQFAAGYRLNDGFWHEVNFVAQENHAVISIDDVEGAEVRVSYPLLIRTGTSYFFGGCPKPASRWGCHSNQTAFHGCMELLKVDGQLVNLTLVEFRKLGYFAEVLFDTCGITDRCSPNMCEHDGRCYQSWDDFICYCELTGYKGVTCHEPLYKESCEAYRLSGKYSGNYTIDPDGSGPLKPFVVYCDIRENRAWTVVRHDRLWTTRVTGSSMDRPFLGAIQYWNASWEEVSALANASQHCEQWIEFSCYNSRLLNTAGGYPYSFWIGRNEEQHFYWGGSQPGIQRCACGLDQSCIDPALHCNCDADQPQWRTDKGLLTFVDHLPVTQVVIGDTNRSSSEAQFFLRPLRCYGDRNSWNTISFRTGAALRFPPIRANHSLDVSFYFRTSAPSGVFLENMGGPFCQWRRPYVRVELNTSRDVVFAFDIGNGDENLTVHSDDFEFNDDEWHLVRAEINVKQARLRVDHRPWVLRPMPLQTYIWLEYDQPLYVGSAELKRRPFVGCLRAMRLNGVTLNLEGRANASEGTFPNCTGHCTHPRFPCFHGGRCVERYSYYTCDCDLTAFDGPYCNHDIGGFFETGTWMRYNLQSALRSAAQEFSHMLSRPVPGYEPGYIPGYDTPGYVPGYHGPGYRLPDYPRPGRPVPGYRGPVYNVTGEEVSFSFSTSSAPAVLLYVSSFVRDYMAVLIKEDGTLQLRYQLGTSPYVYQLTTRPVTDGQPHSVNITRVYRNLFIQVDYFPLTEQKFSLLVDSQLDSPKALYLGRVMETGVIDPEIQRYNTPGFSGCLSGVRFNNVAPLKTHFRTPRPMTAELAEAMRVQGELSESNCGAMPRLVSEVPPELDPWYLPPDFPYYHDDGWIAILLGFLVAFLLLGLVGMLVLFYLQNHRYKGSYHTNEPKATHDSHPGGKAPLPPSGPAQAPAPTPAPTQVPTPAPAPASGPGPRDQNLPQILEESRSE
notes: Endogenous in GH3 cells and rat brain, or expressed from pCM190R in COS7 cells; read from membrane lysates; no cleavage site stated; also called Contactin ASsociated PRotein; 190 kDa protein
